Assay results reported in patent US20140303084.
Changes are numbered by the printed parent chain.

Tests used:
GVEDRQLTCLASSCWVFSRHSV = tested on: T1, GVEDRQLTCLASSCWVFSRHSV
T1 sequence: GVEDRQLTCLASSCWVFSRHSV

HQQRRKLTCLAGYCWLFVLGPS = tested on: T2, HQQRRKLTCLAGYCWLFVLGPS
T2 sequence: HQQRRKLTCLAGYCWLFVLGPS

KLTCLASQCWLF = tested on: T3, KLTCLASQCWLF
T3 sequence: KLTCLASQCWLF

KLTCLASYCFLF = tested on: T4, KLTCLASYCFLF
T4 sequence: KLTCLASYCFLF

KLTCLASYCWIF = tested on: T5, KLTCLASYCWIF
T5 sequence: KLTCLASYCWIF

KLTCLASYCWL = tested on: T6, KLTCLASYCWL
T6 sequence: KLTCLASYCWL

KLTCLGSYCWLF = tested on: T7, KLTCLGSYCWLF
T7 sequence: KLTCLGSYCWLF

KLTCRASYCQLF = tested on: T8, KLTCRASYCQLF
T8 sequence: KLTCRASYCQLF

[1] = tested on: T9, PARGKERELM RRAPG KLTCLASYCWLFWTGIA
T9 sequence: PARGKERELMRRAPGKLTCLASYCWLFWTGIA

PGKLQCLASYCWLFWTGIA = tested on: T10, PGKLQCLASYCWLFWTGIA
T10 sequence: PGKLQCLASYCWLFWTGIA

[2] = tested on: T11, PRIRTVGPGSRRASGKLTCLASYCWLFWTGIA
T11 sequence: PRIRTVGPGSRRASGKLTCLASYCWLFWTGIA

[3] = tested on: T12, PRIRTVGPGSRSASGKLTCLASYCWLAWTGIA
T12 sequence: T11 sequence with R12S, F27A

[4] = tested on: T13, PRIRTVGPGSRSASGKLTCLASYCWLFLTGIA
T13 sequence: T11 sequence with R12S, W28L

[5] = tested on: T14, PRIRTVGPGSRSASGKLTCLASYCWLFWTSIA
T14 sequence: T11 sequence with R12S, G30S

[6] = tested on: T15, PSGWAGWAPG RREPG KLTCLASYCWLFWTGIA
T15 sequence: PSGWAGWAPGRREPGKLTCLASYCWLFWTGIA

[7] = tested on: T16, PSIRTVGPGSRSASGKLTCLASYCWLFWTGIA
T16 sequence: T11 sequence with R2S, R12S

[8] = tested on: T17, RRAK(PEG2-Biotin)GKLTCLASYCWLFWTGIA
T17 sequence: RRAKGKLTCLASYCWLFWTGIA

[9] = tested on: T18, RRAPG-MeLys-LTCLASYCWLFWTGIA
T18 sequence: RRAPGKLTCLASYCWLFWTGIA

[10] = tested on: T19, RRAPG-k-NMeLeu-TCLASYCWLFWTGIA
T19 sequence: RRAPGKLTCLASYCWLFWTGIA

[11] = tested on: T20, RRAPGKK(PEG2-Biotin)TCLASYCWLFWTGIA
T20 sequence: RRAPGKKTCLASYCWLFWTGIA

RRAPGKLQCLASYCWLFATAIA = tested on: T21, RRAPGKLQCLASYCWLFATAIA
T21 sequence: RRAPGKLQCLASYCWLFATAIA

RRAPGKLQCLASYCWLFKTGIA = tested on: T22, RRAPGKLQCLASYCWLFKTGIA
T22 sequence: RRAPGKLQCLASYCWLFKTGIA

RRAPGKLQCLASYCWLFWTGIK = tested on: T23, RRAPGKLQCLASYCWLFWTGIK
T23 sequence: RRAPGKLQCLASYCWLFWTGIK

RRAPGKLQCLASYCWLFWTGI = tested on: T24, RRAPGKLQCLASYCWLFWTGI
T24 sequence: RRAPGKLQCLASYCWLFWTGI

[12] = tested on: T25, RRAPGKLT-Asp-LASY-Orn-WLFWTGIA-COOH
T25 sequence: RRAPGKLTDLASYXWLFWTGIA

[13] = tested on: T26, RRAPGKLT-Lys-LASY-Glu-WLFWTGIA-COOH
T26 sequence: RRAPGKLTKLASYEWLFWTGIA

[14] = tested on: T27, RRAPGKLT-Orn-LASY-Asp-WLFWTGIA-COOH
T27 sequence: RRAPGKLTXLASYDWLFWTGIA

[15] = tested on: T28, RRAPGKLTCLA-MeSer-YCWLFWTGIA
T28 sequence: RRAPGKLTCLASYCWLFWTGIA

[16] = tested on: T29, RRAPGKLTCLASK(PEG2-Biotin)CWLFWTGIA
T29 sequence: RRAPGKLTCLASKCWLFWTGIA

[17] = tested on: T30, RRAPGKLTCLASYCWLF WAGFA ASTLAPAHHQ
T30 sequence: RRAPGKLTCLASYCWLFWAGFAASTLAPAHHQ

[18] = tested on: T31, RRAPGKLTCLASYCWLF WAGIA PHRPLKERVR
T31 sequence: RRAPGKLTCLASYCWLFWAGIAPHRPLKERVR

[19] = tested on: T32, RRAPGKLTCLASYCWLF WAVIA PPKVKGTRQS
T32 sequence: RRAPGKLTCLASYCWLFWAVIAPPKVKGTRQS

[20] = tested on: T33, RRAPGKLTCLASYCWLF WTGLA STLYKTYTRE
T33 sequence: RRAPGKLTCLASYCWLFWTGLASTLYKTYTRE

[21] = tested on: T34, RRAPGKLTCLASYCWLF WTGWC RDTASHACDS
T34 sequence: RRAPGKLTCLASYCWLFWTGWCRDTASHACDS

[22] = tested on: T35, RRAPGKLTCLASYCWLFWTGIA-COOH
T35 sequence: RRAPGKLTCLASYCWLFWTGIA

RRAPGKLTCLASYCWLFWTGiA = tested on: T36, RRAPGKLTCLASYCWLFWTGiA
T36 sequence: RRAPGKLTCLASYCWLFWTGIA

RRCPGKLQALASYCWLFWTGIA = tested on: T37, RRCPGKLQALASYCWLFWTGIA
T37 sequence: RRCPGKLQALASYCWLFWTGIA

RSQGRKLTCLASYCWLFLVVHR = tested on: T38, RSQGRKLTCLASYCWLFLVVHR
T38 sequence: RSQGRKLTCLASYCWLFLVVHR

[23] = tested on: T39, SKQGRAISPDrRAAGKLTCLASYCWLFWTGIA
T39 sequence: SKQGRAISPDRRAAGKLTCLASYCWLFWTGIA

[24] = tested on: T40, SKQGRPIAPDrRAAGKLTCLASYCWLFWTGIA
T40 sequence: T39 sequence with A6P, S8A

[25] = tested on: T41, SKQGRPISPDRRAAGKLTCLASYCWLFWTGIA-PEG2-K(PEG2-Biotin)
T41 sequence: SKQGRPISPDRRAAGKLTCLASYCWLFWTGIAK

[26] = tested on: T42, SKQGRPISPDrRAAGKLTCLASYCWLFWTGIA-PEG4-C(N-PEG5k maleimide)
T42 sequence: T41 sequence with K33C

[27] = tested on: T43, SKQGRPISPDrRAAGKLTCLASYCWLFWTGI
T43 sequence: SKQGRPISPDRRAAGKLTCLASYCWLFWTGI

[28] = tested on: T44, SRSRTVSPGSRSASGKSTCLASYCWLFWTGIA
T44 sequence: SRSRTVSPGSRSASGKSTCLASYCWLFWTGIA

[29] = tested on: T45, TQWAQVGPRG RRAQG KLTCLASYCWLFWTGIA
T45 sequence: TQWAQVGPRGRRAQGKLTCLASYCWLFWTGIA

k-MeLeu-TCLASFCWLF = tested on: T46, k-MeLeu-TCLASFCWLF
T46 sequence: KLTCLASFCWLF

human Factor IXa
> 2: Vmax, FXa generation assay (HQQRRKLTCLAGYCWLFVLGPS) | Vmax, FXa generation assay (KLTCLASQCWLF) | Vmax, FXa generation assay (KLTCLASYCWIF) | Vmax, FXa generation assay (KLTCLGSYCWLF) | Vmax, FXa generation assay (KLTCRASYCQLF) | Vmax, FXa generation assay (PGKLQCLASYCWLFWTGIA) | Vmax, FXa generation assay [6] | Vmax, FXa generation assay [11] | Vmax, FXa generation assay (RRAPGKLQCLASYCWLFWTGI) | Vmax, FXa generation assay [14] | Vmax, FXa generation assay [17] | Vmax, FXa generation assay [18] | Vmax, FXa generation assay [19] | Vmax, FXa generation assay [22] | Vmax, FXa generation assay (RRCPGKLQALASYCWLFWTGIA) | Vmax, FXa generation assay (k-MeLeu-TCLASFCWLF)
(++): Vmax, FXa generation assay; (++) means 1-2 (GVEDRQLTCLASSCWVFSRHSV) | Vmax, FXa generation assay; (++) means 1-2 [8] | Vmax, FXa generation assay; (++) means 1-2 [9] | Vmax, FXa generation assay; (++) means 1-2 (RRAPGKLQCLASYCWLFWTGIK) | Vmax, FXa generation assay; (++) means 1-2 [12] | Vmax, FXa generation assay; (++) means 1-2 [13] | Vmax, FXa generation assay; (++) means 1-2 [15] | Vmax, FXa generation assay; (++) means 1-2 [16] | Vmax, FXa generation assay; (++) means 1-2 [20] | Vmax, FXa generation assay; (++) means 1-2 [21] | Vmax, FXa generation assay; (++) means 1-2 (RRAPGKLTCLASYCWLFWTGiA) | Vmax, FXa generation assay; (++) means 1-2 (RSQGRKLTCLASYCWLFLVVHR) | Vmax, FXa generation assay; (++) means 1-2 [25]
> 0.5: Vmax, FXa generation assay [26]
> 3: Vmax, FXa generation assay (KLTCLASYCFLF) | Vmax, FXa generation assay (KLTCLASYCWL) | Vmax, FXa generation assay [1] | Vmax, FXa generation assay [2] | Vmax, FXa generation assay [3] | Vmax, FXa generation assay [4] | Vmax, FXa generation assay [5] | Vmax, FXa generation assay [7] | Vmax, FXa generation assay [10] | Vmax, FXa generation assay (RRAPGKLQCLASYCWLFATAIA) | Vmax, FXa generation assay [23] | Vmax, FXa generation assay [24] | Vmax, FXa generation assay [27] | Vmax, FXa generation assay [28] | Vmax, FXa generation assay [29]
> 0.2: Vmax, FXa generation assay (RRAPGKLQCLASYCWLFKTGIA)
